46 sequences from the supplement of paper PMC9233669 can be followed below.

For one data set, the system named is biotinyl-Phe-oxazolone. As to the kind of experiment: self-aminoacylation, catalytic enhancement (BFO) (fold over background); higher = more active; k-Seq, kA / k0A0; sequences stand for … in GGGAAUGGAUCCACAUCUACGAAUUC…UUCACUGCAGACUUGACGAAGCUG
The gist of the method:
(§1)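 Each biotinyl-aminoacyl-oxazolone, at 2–1250 μM, was incubated with mutagenized RNA pools (0.43 μM) carrying a 21-nt variable region. The 50 μL reactions contained HEPES/NaCl/KCl/MgCl2/CaCl2 buffer with 5% acetonitrile at pH 6.9–7.0 and ran for 90 minutes at room temperature. After streptavidin capture, RNA was measured by qPCR in triplicate and by Illumina sequencing, and catalytic enhancement was calculated as median kA over the uncatalyzed rate from a pseudo-first-order fit of per-sequence fraction reacted.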

The test system of a further data set is biotinyl-Met-oxazolone. As to the kind of experiment: self-aminoacylation, catalytic enhancement (BMO) (fold over background); higher = more active; k-Seq, kA / k0A0; sequences stand for … in GGGAAUGGAUCCACAUCUACGAAUUC…UUCACUGCAGACUUGACGAAGCUG
The essentials: as §1

The test system of a further data set is biotinyl-Trp-oxazolone. As to the kind of experiment: self-aminoacylation, catalytic enhancement (BWO) (fold over background); higher = more active; k-Seq, kA / k0A0; sequences stand for … in GGGAAUGGAUCCACAUCUACGAAUUC…UUCACUGCAGACUUGACGAAGCUG
The essentials:
as §1

The next data set deals with biotinyl-Leu-oxazolone. As to the kind of experiment: self-aminoacylation, catalytic enhancement (BLO) (fold over background); higher = more active; k-Seq, kA / k0A0; sequences stand for … in GGGAAUGGAUCCACAUCUACGAAUUC…UUCACUGCAGACUUGACGAAGCUG
The essentials:
as §1

This sample holds only a part of the variants without activity.

“AAGUUCGCUAAUAGUCGCAAC [Fam3.1 aminoacylation ribozyme variant]”: the self-aminoacylation in the data set with biotinyl-Phe-oxazolone amounted to 2.12; in the data set with biotinyl-Met-oxazolone, 2.32; in the data set on biotinyl-Trp-oxazolone it was 2.33.

On to “AAGUCUGCUAAUAGUCGUAAG [Fam3.1 aminoacylation ribozyme variant]”, for which the values for the self-aminoacylation with biotinyl-Phe-oxazolone, in the data set with biotinyl-Met-oxazolone and in the data set on biotinyl-Trp-oxazolone were 49.6, 2.5 and 9.94, respectively.

Regarding “AUUCACCUAGGUCAGCGUGUG [Fam2.2 aminoacylation ribozyme variant]”, the values for the self-aminoacylation with biotinyl-Phe-oxazolone, with biotinyl-Met-oxazolone and in the data set on biotinyl-Leu-oxazolone were 11, 2.16 and 2.77, respectively.

For “ACACGCUUCAAGCAAUCGGUC [Fam1B.1 aminoacylation ribozyme variant]”, the figures for the self-aminoacylation with biotinyl-Phe-oxazolone, with biotinyl-Leu-oxazolone and with biotinyl-Trp-oxazolone were 63.7, 2.68 and 38.8, respectively.

On to “CCCCACUUCAAGUAAUCGGUC [Fam1B.1 aminoacylation ribozyme variant]”, for which the results for the self-aminoacylation in the data set with biotinyl-Phe-oxazolone, in the data set on biotinyl-Leu-oxazolone and with biotinyl-Trp-oxazolone were 15.4, 2.08 and 14.2, respectively.

As for “CCGCACUUCAAGCAAUCGGUC [Fam1B.1 aminoacylation ribozyme variant]”, the self-aminoacylation with biotinyl-Phe-oxazolone was determined as 61.6; with biotinyl-Leu-oxazolone, 2.01; with biotinyl-Trp-oxazolone, 36.5.

Turning to “AUUCACCUAGGUCUUCAGGUG [Fam2.2 aminoacylation ribozyme variant]”, the self-aminoacylation turned out to be 6.96 in the data set with biotinyl-Phe-oxazolone, 2.04 in the data set on biotinyl-Met-oxazolone and 2.02 with biotinyl-Leu-oxazolone.

Turning to “AAGCUGGCUAAUAGUCGCAAG [Fam3.1 aminoacylation ribozyme variant]”, the values for the self-aminoacylation in the data set with biotinyl-Phe-oxazolone, in the data set with biotinyl-Leu-oxazolone and with biotinyl-Trp-oxazolone were 3.61, 2.68 and 2.08, respectively.

Take “AUUCACCUAGCUCCUCGGGUG [Fam2.2 aminoacylation ribozyme variant]”: the self-aminoacylation in the data set on biotinyl-Phe-oxazolone worked out at 5.19; in the data set with biotinyl-Leu-oxazolone, 2.24.

For the sequence “ACACACUUCAAGCCAUCGGUC [Fam1B.1 aminoacylation ribozyme variant]”, the self-aminoacylation was found to be 2.41 in the data set on biotinyl-Phe-oxazolone and 2.11 in the data set with biotinyl-Leu-oxazolone.

Take “AUGACCCUGGUCAUCGAGGGA [Fam2.1 aminoacylation ribozyme variant]”: the self-aminoacylation in the data set on biotinyl-Phe-oxazolone turned out to be 2.82; in the data set on biotinyl-Met-oxazolone, 3.65; with biotinyl-Leu-oxazolone, 3.03.

As to “GUACUUCAAUCAAUCGGUCUG [Fam1A.1 aminoacylation ribozyme variant]”, the values for the self-aminoacylation in the data set with biotinyl-Phe-oxazolone, in the data set with biotinyl-Leu-oxazolone and with biotinyl-Trp-oxazolone were 21.9, 2.06 and 19.4, respectively.

Regarding “AAGUUAGCUAAUAGUCGCGAG [Fam3.1 aminoacylation ribozyme variant]”, the self-aminoacylation in the data set on biotinyl-Phe-oxazolone is 2.29; with biotinyl-Leu-oxazolone, 2.09; with biotinyl-Trp-oxazolone it was 2.24.

With “AUUCACCUACGUCGUCGGGUG [Fam2.2 aminoacylation ribozyme variant]”, the self-aminoacylation is 11.5 with biotinyl-Phe-oxazolone and 2.38 with biotinyl-Leu-oxazolone.

For “AUUCACAUAGGUCAUCGAGUG [Fam2.2 aminoacylation ribozyme variant]”, the results for the self-aminoacylation in the data set with biotinyl-Phe-oxazolone, with biotinyl-Leu-oxazolone and in the data set with biotinyl-Trp-oxazolone were 3.08, 2.69 and 2.2, respectively.

“AACUUUGCUAAUAGUAGCAAG [Fam3.1 aminoacylation ribozyme variant]”: the self-aminoacylation with biotinyl-Phe-oxazolone worked out at 2.06; in the data set with biotinyl-Met-oxazolone, 2.2; with biotinyl-Trp-oxazolone, 2.42.

Take “CUACGUCAAACAAUCGGUGUG [Fam1A.1 aminoacylation ribozyme variant]”: the self-aminoacylation in the data set on biotinyl-Leu-oxazolone was 2.02.

“GUACUUCAAACAAUCGGUCGG [Fam1A.1 aminoacylation ribozyme variant]”: the self-aminoacylation with biotinyl-Phe-oxazolone amounted to 37.8; with biotinyl-Leu-oxazolone it was 2.3; in the data set with biotinyl-Trp-oxazolone it was 15.8.

As for “GAGUUUGCUAAUAGUCGCAGG [Fam3.1 aminoacylation ribozyme variant]”, the self-aminoacylation in the data set with biotinyl-Phe-oxazolone was 6.69; in the data set on biotinyl-Leu-oxazolone it was 2.11; with biotinyl-Trp-oxazolone, 3.34.

On to “AUUCACCUGGGUCAUAGGGUG [Fam2.2 aminoacylation ribozyme variant]”, for which the figures for the self-aminoacylation in the data set with biotinyl-Phe-oxazolone and with biotinyl-Leu-oxazolone were 6.22 and 2.23, respectively.

Turning to “AUACACCUAGGUCGUCGGGUG [Fam2.2 aminoacylation ribozyme variant]”, the self-aminoacylation with biotinyl-Phe-oxazolone was found to be 6.55; in the data set on biotinyl-Leu-oxazolone it was 2.55.

As for “CCACUUCAAACAAUCGGUCGG [Fam1A.1 aminoacylation ribozyme variant]”, the self-aminoacylation in the data set with biotinyl-Phe-oxazolone was 99.5; with biotinyl-Leu-oxazolone, 2.54; with biotinyl-Trp-oxazolone it was 33.2.

As for “ACUCACCUAGGUCAUCGGGUC [Fam2.2 aminoacylation ribozyme variant]”, the self-aminoacylation with biotinyl-Phe-oxazolone was determined as 7.01; with biotinyl-Met-oxazolone, 2.24.

As to “AUUCACCUAGCUCAUCGGGGG [Fam2.2 aminoacylation ribozyme variant]”, in the data set on biotinyl-Met-oxazolone, the self-aminoacylation stood at 2.42.

With “AUUCACCUAGGUCAGCGGUUG [Fam2.2 aminoacylation ribozyme variant]”, the values for the self-aminoacylation with biotinyl-Phe-oxazolone and in the data set with biotinyl-Met-oxazolone were 6.39 and 2.22, respectively.

Regarding “AUUCACCGAGGUCAUCAGGUG [Fam2.2 aminoacylation ribozyme variant]”, the values for the self-aminoacylation with biotinyl-Phe-oxazolone and in the data set with biotinyl-Leu-oxazolone were 2.42 and 2.03, respectively.

As for “CAACGCUUCAAGCAAUCGGUC [Fam1B.1 aminoacylation ribozyme variant]”, the self-aminoacylation worked out at 58.6 in the data set on biotinyl-Phe-oxazolone, 2.08 in the data set with biotinyl-Leu-oxazolone and 33.7 in the data set with biotinyl-Trp-oxazolone.

With “CGACUUCAAUCAAUCGGUCUG [Fam1A.1 aminoacylation ribozyme variant]”, the self-aminoacylation was found to be 42.2 in the data set with biotinyl-Phe-oxazolone, 2.21 in the data set on biotinyl-Leu-oxazolone and 24.3 in the data set with biotinyl-Trp-oxazolone.

For “AAGUUUGCUCAUAGUCGUAAG [Fam3.1 aminoacylation ribozyme variant]”, the figures for the self-aminoacylation in the data set with biotinyl-Phe-oxazolone and in the data set on biotinyl-Trp-oxazolone were 14.6 and 3.67, respectively.

For “CUACUUCAAGCAAUCGGUCUC [Fam1A.1 aminoacylation ribozyme variant]”, the values for the self-aminoacylation with biotinyl-Phe-oxazolone and with biotinyl-Trp-oxazolone were 11.4 and 6.61, respectively.

“CCACACUUCAAAAAAUCGGUC [Fam1B.1 aminoacylation ribozyme variant]”: the self-aminoacylation in the data set with biotinyl-Phe-oxazolone was determined as 18.2; in the data set with biotinyl-Trp-oxazolone, 14.5.

On to “AAGUUGGCUAAUAGUCGCAAA [Fam3.1 aminoacylation ribozyme variant]”, for which the self-aminoacylation with biotinyl-Phe-oxazolone was 2.83; in the data set with biotinyl-Trp-oxazolone, 2.03.

Turning to “AAGCUUGCUAAUAGUCGCAUG [Fam3.1 aminoacylation ribozyme variant]”, the values for the self-aminoacylation in the data set with biotinyl-Phe-oxazolone and with biotinyl-Leu-oxazolone were 3.98 and 2.07, respectively.

As for “CAAAACUUCAAGCAAUCGGUC [Fam1B.1 aminoacylation ribozyme variant]”, the values for the self-aminoacylation in the data set with biotinyl-Phe-oxazolone and with biotinyl-Trp-oxazolone were 15.2 and 10.6, respectively.

With “CCACCUCAAACAAUCGGUCUG [Fam1A.1 aminoacylation ribozyme variant]”, the self-aminoacylation in the data set on biotinyl-Phe-oxazolone and with biotinyl-Trp-oxazolone was 4.25 in each case.

With “CGACACUUCACGCAAUCGGUC [Fam1B.1 aminoacylation ribozyme variant]”, the self-aminoacylation in the data set on biotinyl-Phe-oxazolone worked out at 4.13; with biotinyl-Leu-oxazolone, 2.15.

Regarding “CGUCUUCAAACAAUCGGUCUG [Fam1A.1 aminoacylation ribozyme variant]”, the self-aminoacylation amounted to 79 with biotinyl-Phe-oxazolone, 2.22 in the data set on biotinyl-Leu-oxazolone and 33.5 in the data set on biotinyl-Trp-oxazolone.

With “CUACUUCAAGCAAUCGGUCCG [Fam1A.1 aminoacylation ribozyme variant]”, the self-aminoacylation was 3.44 with biotinyl-Phe-oxazolone and 3.02 in the data set on biotinyl-Trp-oxazolone.

On to “AUUCACCUAGGUCAUCUGGCG [Fam2.2 aminoacylation ribozyme variant]”, for which the self-aminoacylation in the data set on biotinyl-Leu-oxazolone was found to be 2.88.

Regarding “CCAGACUUCAAACAAUCGGUC [Fam1B.1 aminoacylation ribozyme variant]”, the self-aminoacylation in the data set with biotinyl-Phe-oxazolone came out at 85.8; with biotinyl-Leu-oxazolone, 2.19; in the data set with biotinyl-Trp-oxazolone, 40.2.

“CUACUUCAAACAAUCGGUCUA [Fam1A.1 aminoacylation ribozyme variant]”: the self-aminoacylation with biotinyl-Phe-oxazolone is 24.5; with biotinyl-Trp-oxazolone it was 10.

For the sequence “AGGGUUGCUAAUAGUCGCAAG [Fam3.1 aminoacylation ribozyme variant]”, the self-aminoacylation with biotinyl-Phe-oxazolone amounted to 4.28; in the data set on biotinyl-Met-oxazolone, 2.18.

On to “CUAUUUCAAUCAAUCGGUCUG [Fam1A.1 aminoacylation ribozyme variant]”, for which the results for the self-aminoacylation with biotinyl-Phe-oxazolone and in the data set on biotinyl-Trp-oxazolone were 6.36 and 3.72, respectively.

On to “AGGUAUGCUAAUAGUCGCAAG [Fam3.1 aminoacylation ribozyme variant]”, for which the self-aminoacylation in the data set with biotinyl-Phe-oxazolone came out at 9.64; with biotinyl-Trp-oxazolone, 3.41.

Regarding “CCACUCUUCAACCAAUCGGUC [Fam1B.1 aminoacylation ribozyme variant]”, the self-aminoacylation worked out at 45.7 in the data set on biotinyl-Phe-oxazolone and 27 with biotinyl-Trp-oxazolone.

Take “CUCCUUCAAACAAUCGGGCUG [Fam1A.1 aminoacylation ribozyme variant]”: the results for the self-aminoacylation in the data set with biotinyl-Phe-oxazolone and in the data set with biotinyl-Trp-oxazolone were 15.1 and 14.4, respectively.
